What was measured:
[1] = target: T1, Bacillus subtilis DnaK wild type, 6xHis-tagged (Bacillus subtilis 168, UniProt P17820 1-611, to some extent phosphorylated (phosphotyrosine signal) during heterologous expression in E. coli; residues and extent not told for this preparation); assay: pull-down; 100 ug 6xHis-DnaK (WT or Y601F) and 100 ug Strep-tagged DnaJ or GrpE incubated with 1 ug anti-6xHis antibody (HIS.H8) in 450 uL IP Lysis/Wash Buffer (Pierce Classic IP Kit); captured on Protein A/G agarose; eluates blotted with anti-Strep tag and anti-His tag; settings: both partners purified
T1 construct: probably the whole ORF, since Y601 lies near the C-terminus; also called DnaK WT; WT DnaK; source: E. coli (NEB Express Iq), purified (Ni-NTA, desalted on PD-10); not shown: 6xHis, N-terminal, kept

[2] = target: T2, Bacillus subtilis DnaK Y601F, 6xHis-tagged (Bacillus subtilis 168, UniProt P17820 1-611, Y601F, to some extent phosphorylated during heterologous expression in E. coli (on residues other than 601); residues not told for this preparation); assay: as above; settings: both partners purified
T2 construct: the mutant is described as a version of the same protein in the same vector; source: E. coli (NEB Express Iq), purified (Ni-NTA, desalted on PD-10); not shown: 6xHis, N-terminal, kept

Binder | binding result [1] | binding result [2]
Bacillus subtilis DnaJ, Strep-tagged (natural protein, Made in a pQE-30 vector in which the His-tag was replaced by a strep-tag (Jers et al., 2010)) not shown | binds | binds
Bacillus subtilis GrpE, Strep-tagged (natural protein, Bacillus subtilis 168, UniProt P15874 1-187, looked up, Made in a pQE-30 vector in which the His-tag was replaced by a strep-tag (Jers et al., 2010)) MSEEKQTVEQNETEEQEIIEEQAAADEQQEETNESELLQNQINELQGLLEEKENKLLRVQADFENYKRRSRLEMEASQKYRSQNIVTDLLPALDSFERALQVEADNEQTKSLLQGMEMVHRQLVEALKKEGVEAIEAVGQEFDPNLHQAVMQAEDENYGSNIVVEEMQKGYKLKDRVIRPSMVKVNQ | binds | binds

From paper PMC4835898 (Frontiers in Microbiology, 2016)
